± gives the half width of the 95% confidence interval.
Legend:
[1] = folding stability dG unfold from chymotrypsin proteolysis; higher = more stable
How it was run: (§1)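 How resistant each design was to proteolysis was captured as K50, inferred by Bayesian fitting of sequencing counts. Unfolding free energy was then derived relative to a sequence-predicted unfolded-state K50 and a shared folded-state K50, per protease or combined. Digestion used trypsin and chymotrypsin at 11 threefold-diluted concentrations plus a no-protease condition, on mini-proteins under 80 residues without cysteine in a PA-tagged cDNA display construct. Designs were kept only when AlphaFold2 dimer inter-PAE was above 15.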

[2] = folding stability dG unfold (combined trypsin and chymotrypsin); higher = more stable
How it was run: as §1

[3] = folding stability dG unfold from trypsin proteolysis; higher = more stable
How it was run: as §1

Row | Sequence | folding stability dG unfold [1] [kcal/mol] | folding stability dG unfold [2] [kcal/mol] | folding stability dG unfold [3] [kcal/mol]
1 | SAGGSAELAKALGLKVTVEVEEEDGYLTVKVTVTGPNGEEKTFTMVIKIEPLPPPKKVKKGDKKNKSAGGSA [r15_843_TrROS_Hall] | 3.74 ± 0.13 | 3.62 ± 0.21 | 2.44 ± 0.26
2 | SAGSLEKVTESSTSSDKVEVTTTTLTPLSNPSVPVQYVKTTTTTTLIDPATGKTLSTTTTTTTTPLPAASAG [r5_300_JUSTAS] | 0.0998 ± 0.19 | 0.053 ± 0.19 | -0.0274 ± 0.047
3 | SAGGSAGGEIKAKVPYEKYPKYYKVKVEIYDPNTKKKIEYEALFPKGTKISAEEIAKKIVKKIKSAGGSAGG [r6_233_TrMRF] | 1.54 ± 0.085 | 1.26 ± 0.24 | 0.876 ± 0.086
4 | SAKKVPKIEKIEFIPGPNLVKITIPVPEKDKLLVTIDLKDKKLEFELKKNTSFYFSAKYADIKVSVEKKSAG [r14_96_TrMRF] | 3.11 ± 0.14 | 3 ± 0.2 | 2.28 ± 0.16
5 | SAGGDLEAKPFEITFVIKAKPFPTPDGRLVETPEKVFKLKVLVVRGPNETRLFVFDEDGNLLFTSNLSAGGS [r16_92_TrMRF] | 3.888 ± 0.022 | 3.39 ± 0.064 | 2.37 ± 0.051
6 | VDLGIRTESVGGRRYRVLIRRPGTGEPRVLEVEGTLEEARERALREIREEYPDLPVRSINPVPVPAPPWLES [r1_80_TrMRF] | -0.154 ± 0.14 | -0.139 ± 0.15 | -0.153 ± 0.19
7 | SAGKEIIIPFRDIPPKYIKNQLKKFPPGKEIRIMFPGPEVADYLKEKGFPVRPERIKPITPDDMAKMMNSAG [r5_354_TrROS] | -0.186 ± 0.26 | -0.258 ± 0.28 | -0.149 ± 0.4
8 | SAGGSAGGSAPWRIRIRDPNGKKVEIPWEEVADKFGIPPEEMTLDDILEAFANNIDRIEIVDSAGGSAGGSA [r18_403_TrROS] | 0.361 ± 0.12 | 0.64 ± 0.081 | 0.91 ± 0.067
9 | SAGGNLFIRIKIEHDGGPITHWFPIKDAEQAKDNIKEFFDQQGLPVKIKEIEVFPEEGFIPVEWRVPPSAGG [r13_567_TrROS] | 0.485 ± 0.12 | 0.348 ± 0.11 | 0.101 ± 0.12
10 | SAGKPKPEETVTLVLEVPKENPIKVEELFEKLPDVKFVEVKVEPLPDDRVLITITVLPEDVEKIKKALGSAG [r5_554_TrMRF] | 2.13 ± 0.069 | 2.76 ± 0.13 | 3.58 ± 0.28
11 | SAGGSAGGSAGEPEIEIEVEERDGELVLRARVRDRETGEEYEVVVRVRPDGPIEITEIRPSAGGSAGGSAGG [r17_113_TrROS_Hall] | 2.55 ± 0.13 | 2.72 ± 0.13 | 3.11 ± 0.13
12 | SAGGETVEIEVEMSPEEVREAIKKAAEALDAEVVEVKYDKETKKVTITVKKGATEEELRKALEEALKSAGGS [r8_338_TrROS_Hall] | 1.78 ± 0.095 | 2.19 ± 0.095 | 2.47 ± 0.12
13 | SAGGSAWIWITYQFPPGGTLEQAKEQIVNYLQRLFGWKIEIPDIEVEREGNNWTVTFPIKIEPLPGSAGGSA [r15_105_TrROS] | 4.4 ± 0.098 | 4.18 ± 0.24 | 3.7 ± 0.16
14 | SAGGSAGGSAGKLKIKKVKVVKTETFTLPNGYTIKVSYVEVEVDGKKYLFKSVEIYPKKESAGGSAGGSAGG [r11_129_TrROS_Hall] | 3.09 ± 0.033 | 2.85 ± 0.15 | 2.02 ± 0.1
15 | SAGGSAGGSAPRVRYRRRVLVYFPADGSVVPVVLEVSPGPLTLRLDLPAASFPPVRIAPLGSAGGSAGGSAG [r3_454_TrMRF] | 2.58 ± 0.098 | 1.98 ± 0.14 | 1.28 ± 0.066
16 | SAMEIEIEPLEKEELLKLPGAEIRLFYFPDRVLAEILLPDGTPFFVEFDPSLKPEEVLEKLLKLLEELGSAG [r14_618_TrMRF] | 4.29 ± 0.1 | 4.23 ± 0.13 | 3.98 ± 0.18
17 | SAGGVTVSLSDPLSGNITTVPVAPNSTVTVTTSASLGGPNYTITTTVTVTLNGSTPVFTITSTVTPLSSAGG [r19_331_JUSTAS] | 3.54 ± 0.071 | 3.41 ± 0.17 | 3.08 ± 0.16
